# Measured values from US8278109.
# How the values were obtained:
# [1] = molecular target: JEG-3 derived purified hCG-H (human) (UniProt P01215); experiment: SPR (Biacore); 7 injections of B152 at 20-100 micrograms/ml over JEG-3 hCG-H; lower end
# [2] = molecular target: JEG-3 derived purified hCG-H (human) (UniProt P01215); experiment: SPR (Biacore); B152 concentration (100 micrograms/ml) giving 223 RU on hCG-H compared with SMA 3E8 and SMA 4D8
# [3] = molecular target: JEG-3 derived purified hCG-H (human) (UniProt P01215); experiment: SPR (Biacore); 7 injections of B152 at 20-100 micrograms/ml over JEG-3 hCG-H; at 100 micrograms/ml
# Sequence of UniProt P01215 (P01215 25-116, chain 1 of 2, other chains not shown): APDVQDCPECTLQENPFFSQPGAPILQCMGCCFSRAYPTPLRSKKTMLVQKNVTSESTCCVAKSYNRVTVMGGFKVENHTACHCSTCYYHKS
substance,measurement,setting,value
B152 (antibody),response,[1],60 RU
same,"fold antibody concentration needed for the response, against SMA 3E8 and SMA 4D8",[2],50 to 100 fold
same,response,[3],223 RU
